Source: paper PMC6056499, “A systematic dissection of sequence elements determining β-Klotho and FGF interaction and signaling” (Scientific Reports, 2018)

What was measured:
[1] = molecular target: human β-Klotho extracellular domain (aa1–992) fused with a 6 × His tag at the C-terminus (UniProt Q86Z14); assay: AlphaScreen; details: parent: est. 1.0, read off a plot
[2] = molecular target: human β-Klotho extracellular domain (aa1–992) fused with a 6 × His tag at the C-terminus (UniProt Q86Z14); assay: solid-phase binding assay; details: parent: est. 1.0; read off a plot
[3] = competition with FGF19 for β-Klotho
[4] = competition with FGF21 for β-Klotho

Sequence of human β-Klotho extracellular domain (aa1–992) fused with a 6 × His tag at the C-terminus (Q86Z14 53-992): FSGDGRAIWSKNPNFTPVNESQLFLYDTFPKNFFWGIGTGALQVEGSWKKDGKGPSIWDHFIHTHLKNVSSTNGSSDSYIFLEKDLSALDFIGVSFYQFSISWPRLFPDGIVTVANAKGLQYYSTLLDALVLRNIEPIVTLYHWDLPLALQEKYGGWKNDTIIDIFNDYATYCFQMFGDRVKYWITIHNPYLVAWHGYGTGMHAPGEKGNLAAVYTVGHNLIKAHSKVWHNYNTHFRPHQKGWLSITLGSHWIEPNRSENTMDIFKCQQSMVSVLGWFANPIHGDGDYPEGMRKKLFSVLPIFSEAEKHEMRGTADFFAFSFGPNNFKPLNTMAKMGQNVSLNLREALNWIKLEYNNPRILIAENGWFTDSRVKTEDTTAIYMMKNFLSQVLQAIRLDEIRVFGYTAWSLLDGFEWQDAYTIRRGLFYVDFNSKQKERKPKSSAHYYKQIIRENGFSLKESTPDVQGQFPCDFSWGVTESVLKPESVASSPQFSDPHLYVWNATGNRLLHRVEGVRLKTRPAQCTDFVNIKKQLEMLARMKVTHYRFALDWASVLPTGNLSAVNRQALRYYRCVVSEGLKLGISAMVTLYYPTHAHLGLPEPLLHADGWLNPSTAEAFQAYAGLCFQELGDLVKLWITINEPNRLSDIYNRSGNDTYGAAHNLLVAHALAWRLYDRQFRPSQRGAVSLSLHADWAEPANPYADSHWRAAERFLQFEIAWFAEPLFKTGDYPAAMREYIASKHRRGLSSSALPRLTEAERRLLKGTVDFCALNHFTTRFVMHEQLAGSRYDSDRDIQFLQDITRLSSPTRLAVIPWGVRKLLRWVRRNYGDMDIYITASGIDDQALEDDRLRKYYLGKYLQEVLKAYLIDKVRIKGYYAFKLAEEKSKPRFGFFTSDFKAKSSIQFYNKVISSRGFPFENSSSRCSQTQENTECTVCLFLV
Sequence of FGF19 C-terminal peptide, WT FGF19^185–216 (from UniProt O95750) 194T-A (O95750 185-216, change not shown): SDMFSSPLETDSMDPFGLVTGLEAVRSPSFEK
Sequence of FGF19 C-terminal peptide, WT FGF19^185–216 (from UniProt O95750) 201G-A (O95750 185-216, change not shown): as above
Sequence of FGF19 C-terminal peptide, WT FGF19^185–216 (from UniProt O95750) 192L-A (O95750 185-216, change not shown): as above
Sequence of FGF19 C-terminal peptide, WT FGF19^185–216 (from UniProt O95750) 215E-A (O95750 185-216, change not shown): as above
Sequence of FGF19 C-terminal peptide, WT FGF19^185–216 (from UniProt O95750) 186D-A (O95750 185-216, change not shown): as above
Sequence of FGF19 C-terminal peptide, WT FGF19^185–216 (from UniProt O95750) 191P-A (O95750 185-216, change not shown): as above
Sequence of FGF19 C-terminal peptide, WT FGF19^185–216 (from UniProt O95750) 203V-A (O95750 185-216, change not shown): as above
Sequence of FGF19 C-terminal peptide, WT FGF19^185–216 (from UniProt O95750) 207E-A (O95750 185-216, change not shown): as above
Sequence of FGF19 C-terminal peptide, WT FGF19^185–216 (from UniProt O95750) 204T-A (O95750 185-216, change not shown): as above
Sequence of FGF19 C-terminal peptide, WT FGF19^185–216 (from UniProt O95750) 209V-A (O95750 185-216, change not shown): as above
Sequence of FGF19 C-terminal peptide, WT FGF19^185–216 (from UniProt O95750) 196S-A (O95750 185-216, change not shown): as above
Sequence of mature human FGF21 polypeptide fused with the human Fc fragment at the N-terminus (Fc-FGF21), wild type (from UniProt Q9NSA1) 208A-R (Q9NSA1 29-209, change not shown): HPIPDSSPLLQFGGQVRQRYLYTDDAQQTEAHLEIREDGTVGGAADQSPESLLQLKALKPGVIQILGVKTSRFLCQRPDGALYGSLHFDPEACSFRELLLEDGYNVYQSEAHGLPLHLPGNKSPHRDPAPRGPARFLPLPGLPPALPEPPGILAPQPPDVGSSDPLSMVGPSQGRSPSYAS
Sequence of mature human FGF21 polypeptide fused with the human Fc fragment at the N-terminus (Fc-FGF21), wild type (from UniProt Q9NSA1) 202G-A (Q9NSA1 29-209, change not shown): as above
Sequence of mature human FGF21 polypeptide fused with the human Fc fragment at the N-terminus (Fc-FGF21), wild type (from UniProt Q9NSA1) 172P-A (Q9NSA1 29-209, change not shown): as above
Sequence of mature human FGF21 polypeptide fused with the human Fc fragment at the N-terminus (Fc-FGF21), wild type (from UniProt Q9NSA1) 167L-A (Q9NSA1 29-209, change not shown): as above
Sequence of mature human FGF21 polypeptide fused with the human Fc fragment at the N-terminus (Fc-FGF21), wild type (from UniProt Q9NSA1) 164F-R (Q9NSA1 29-209, change not shown): as above
Sequence of mature human FGF21 polypeptide fused with the human Fc fragment at the N-terminus (Fc-FGF21), wild type (from UniProt Q9NSA1) 179G-A (Q9NSA1 29-209, change not shown): as above
Sequence of mature human FGF21 polypeptide fused with the human Fc fragment at the N-terminus (Fc-FGF21), wild type (from UniProt Q9NSA1) 203R-A (Q9NSA1 29-209, change not shown): as above
Sequence of mature human FGF21 polypeptide fused with the human Fc fragment at the N-terminus (Fc-FGF21), wild type (from UniProt Q9NSA1) 178P-A (Q9NSA1 29-209, change not shown): as above
Sequence of mature human FGF21 polypeptide fused with the human Fc fragment at the N-terminus (Fc-FGF21), wild type (from UniProt Q9NSA1) 187D-A (Q9NSA1 29-209, change not shown): as above
Sequence of mature human FGF21 polypeptide fused with the human Fc fragment at the N-terminus (Fc-FGF21), wild type (from UniProt Q9NSA1) 163R-A (Q9NSA1 29-209, change not shown): as above
Sequence of mature human FGF21 polypeptide fused with the human Fc fragment at the N-terminus (Fc-FGF21), wild type (from UniProt Q9NSA1) 178P-R (Q9NSA1 29-209, change not shown): as above
Sequence of mature human FGF21 polypeptide fused with the human Fc fragment at the N-terminus (Fc-FGF21), wild type (from UniProt Q9NSA1) 209S-R (Q9NSA1 29-209, change not shown): as above
Sequence of mature human FGF21 polypeptide fused with the human Fc fragment at the N-terminus (Fc-FGF21), wild type (from UniProt Q9NSA1) 205P-R (Q9NSA1 29-209, change not shown): as above
Sequence of mature human FGF21 polypeptide fused with the human Fc fragment at the N-terminus (Fc-FGF21), wild type (from UniProt Q9NSA1) 201Q-A (Q9NSA1 29-209, change not shown): as above
Sequence of mature human FGF21 polypeptide fused with the human Fc fragment at the N-terminus (Fc-FGF21), wild type (from UniProt Q9NSA1) 200S-R (Q9NSA1 29-209, change not shown): as above
Sequence of mature human FGF21 polypeptide fused with the human Fc fragment at the N-terminus (Fc-FGF21), wild type (from UniProt Q9NSA1) 180I-A (Q9NSA1 29-209, change not shown): as above
Sequence of mature human FGF21 polypeptide fused with the human Fc fragment at the N-terminus (Fc-FGF21), wild type (from UniProt Q9NSA1) 198G-A (Q9NSA1 29-209, change not shown): as above

| Substance | ratio to parent [1, 3] | ratio to parent [1, 4] | ratio to parent [2] |
| --- | --- | --- | --- |
| FGF19 C-terminal peptide, WT FGF19^185–216 (from UniProt O95750) 204T-A | 1.6 | 3.2 |  |
| FGF19 C-terminal peptide, WT FGF19^185–216 (from UniProt O95750) 207E-A | 0.6 | 1.1 |  |
| FGF19 C-terminal peptide, WT FGF19^185–216 (from UniProt O95750) 191P-A | 0.8 | 0.5 |  |
| FGF19 C-terminal peptide, WT FGF19^185–216 (from UniProt O95750) 215E-A | 7 | 5.2 |  |
| FGF19 C-terminal peptide, WT FGF19^185–216 (from UniProt O95750) 192L-A | 11 | 7.5 |  |
| FGF19 C-terminal peptide, WT FGF19^185–216 (from UniProt O95750) 203V-A | 3.8 | 5.5 |  |
| mature human FGF21 polypeptide fused with the human Fc fragment at the N-terminus (Fc-FGF21), wild type (from UniProt Q9NSA1) 198G-A |  |  | 0.5 |
| mature human FGF21 polypeptide fused with the human Fc fragment at the N-terminus (Fc-FGF21), wild type (from UniProt Q9NSA1) 208A-R |  |  | 9 |
| mature human FGF21 polypeptide fused with the human Fc fragment at the N-terminus (Fc-FGF21), wild type (from UniProt Q9NSA1) 181L-R |  |  | 1.2 |
| mature human FGF21 polypeptide fused with the human Fc fragment at the N-terminus (Fc-FGF21), wild type (from UniProt Q9NSA1) 172P-A |  |  | 0.5 |
| mature human FGF21 polypeptide fused with the human Fc fragment at the N-terminus (Fc-FGF21), wild type (from UniProt Q9NSA1) 201Q-A |  |  | 0.6 |
| mature human FGF21 polypeptide fused with the human Fc fragment at the N-terminus (Fc-FGF21), wild type (from UniProt Q9NSA1) 189G-R |  |  | 1.2 |
| mature human FGF21 polypeptide fused with the human Fc fragment at the N-terminus (Fc-FGF21), wild type (from UniProt Q9NSA1) 205P-R |  |  | 220 |
| mature human FGF21 polypeptide fused with the human Fc fragment at the N-terminus (Fc-FGF21), wild type (from UniProt Q9NSA1) 180I-A |  |  | 0.6 |
| mature human FGF21 polypeptide fused with the human Fc fragment at the N-terminus (Fc-FGF21), wild type (from UniProt Q9NSA1) 184Q-A |  |  | 1.2 |
| mature human FGF21 polypeptide fused with the human Fc fragment at the N-terminus (Fc-FGF21), wild type (from UniProt Q9NSA1) 209S-R |  |  | 1.6 |
| mature human FGF21 polypeptide fused with the human Fc fragment at the N-terminus (Fc-FGF21), wild type (from UniProt Q9NSA1) 200S-R |  |  | 2 |
| mature human FGF21 polypeptide fused with the human Fc fragment at the N-terminus (Fc-FGF21), wild type (from UniProt Q9NSA1) 163R-A |  |  | 0.9 |
| mature human FGF21 polypeptide fused with the human Fc fragment at the N-terminus (Fc-FGF21), wild type (from UniProt Q9NSA1) 167L-A |  |  | 0.4 |
| mature human FGF21 polypeptide fused with the human Fc fragment at the N-terminus (Fc-FGF21), wild type (from UniProt Q9NSA1) 171P-A |  |  | 1.2 |
| mature human FGF21 polypeptide fused with the human Fc fragment at the N-terminus (Fc-FGF21), wild type (from UniProt Q9NSA1) 178P-A |  |  | 0.7 |

Results, then the substance that gave them:

| ratio to parent [1, 3] | ratio to parent [1, 4] | ratio to parent [2] | Substance |
| --- | --- | --- | --- |
| 0.6 | 0.6 |  | FGF19 C-terminal peptide, WT FGF19^185–216 (from UniProt O95750) 209V-A |
| 0.8 | 0.7 |  | FGF19 C-terminal peptide, WT FGF19^185–216 (from UniProt O95750) 186D-A |
| 2.1 | 1.4 |  | FGF19 C-terminal peptide, WT FGF19^185–216 (from UniProt O95750) 194T-A |
| 19 | 20 |  | FGF19 C-terminal peptide, WT FGF19^185–216 (from UniProt O95750) 201G-A |
| 9.8 | 13 |  | FGF19 C-terminal peptide, WT FGF19^185–216 (from UniProt O95750) 196S-A |
|  |  | 200 | mature human FGF21 polypeptide fused with the human Fc fragment at the N-terminus (Fc-FGF21), wild type (from UniProt Q9NSA1) 188V-A |
|  |  | 1.2 | mature human FGF21 polypeptide fused with the human Fc fragment at the N-terminus (Fc-FGF21), wild type (from UniProt Q9NSA1) 178P-R |
|  |  | 2 | mature human FGF21 polypeptide fused with the human Fc fragment at the N-terminus (Fc-FGF21), wild type (from UniProt Q9NSA1) 203R-A |
|  |  | 14 | mature human FGF21 polypeptide fused with the human Fc fragment at the N-terminus (Fc-FGF21), wild type (from UniProt Q9NSA1) 187D-A |
|  |  | 15 | mature human FGF21 polypeptide fused with the human Fc fragment at the N-terminus (Fc-FGF21), wild type (from UniProt Q9NSA1) 190S-A |
|  |  | 0.6 | mature human FGF21 polypeptide fused with the human Fc fragment at the N-terminus (Fc-FGF21), wild type (from UniProt Q9NSA1) 166P-A |
|  |  | 3 | mature human FGF21 polypeptide fused with the human Fc fragment at the N-terminus (Fc-FGF21), wild type (from UniProt Q9NSA1) 164F-R |
|  |  | 1.3 | mature human FGF21 polypeptide fused with the human Fc fragment at the N-terminus (Fc-FGF21), wild type (from UniProt Q9NSA1) 179G-A |
|  |  | 1.8 | mature human FGF21 polypeptide fused with the human Fc fragment at the N-terminus (Fc-FGF21), wild type (from UniProt Q9NSA1) 202G-A |
